Results: the supplement of paper PMC11316812
± gives the standard deviation of the averaged measurements.

What was measured:
[1] = test system: MCF7; test: percentage of EdU-negative (G0-arrested) nuclei per well, 72 h; higher = more G0 arrest; details: reference: sequence is the full UniProt precursor, the tested protein was the secreted form or ectodomain
[2] = test system: hTERT-HMEC; test: as above; details: reference: sequence is the full UniProt precursor, the tested protein was the secreted form or ectodomain
[3] = protein concentration 0.03125 µM
[4] = protein concentration 0.3125 µM
[5] = protein concentration 0.0225 µM
[6] = protein concentration 0.00975 µM
[7] = protein concentration 0.0975 µM
[8] = protein concentration 0.0145714 µM
[9] = protein concentration 0.145714 µM
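Note: secreted proteins added to cultured cells, EdU pulse at the end, nuclei found by Hoechst imaging, EdU status from nuclear versus surrounding ring intensity ratio, PBS as neutral control.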

Sequence: MNCRELPLTLWVLISVSTAESCTSRPHITVVEGEPFYLKHCSCSLAHEIETTTKSWYKSSGSQEHVELNPRSSSRIALHDCVLEFWPVELNDTGSYFFQMKNYTQKWKLNVIRRNKHSCFTERQVTSKIVEVKKFFQITCENSYYQTLVNSTSLYKNCKKLLLENNKNPTIKKNAEFEDQGYYSCVHFLHHNGKLFNITKTFNITIVEDRSNIVPVLLGPKLNHVAVELGKNVRLNCSALLNEEDVIYWMFGEENGSDPNIHEEKEMRIMTPEGKWHASKVLRIENIGESNLNVLYNCTVASTGGTDTKSFILVRKADMADIPGHVFTRGMIIAVLILVAVVCLVTVCVIYRVDLVLFYRHLTRRDETLTDGKTYDAFVSYLKECRPENGEEHTFAVEILPRVLEKHFGYKLCIFERDVVPGGAVVDEIHSLIEKSRRLIIVLSKSYMSNEVRYELESGLHEALVERKIKIILIEFTPVTDFTFLPQSLKLLKSHRVLKWKADKSLSYNSRFWKNLLYLMPAKTVKPGRDEPEVLPVLSES
- percentage of EdU-negative ([1]; protein concentration 0.03 µM): 26.3 ± 1.8%
- percentage of EdU-negative ([1]; protein concentration 0.3 µM): 28.5 ± 0.78%
- percentage of EdU-negative ([2]; protein concentration 0.03 µM): 4.552 ± 0.028%
- percentage of EdU-negative ([2]; protein concentration 0.3 µM): 15.3 ± 3%

Sequence: MNCVCRLVLVVLSLWPDTAVAPGPPPGPPRVSPDPRAELDSTVLLTRSLLADTRQLAAQLRDKFPADGDHNLDSLPTLAMSAGALGALQLPGVLTRLRADLLSYLRHVQWLRRAGGSSLKTLEPELGTLQARLDRLLRRLQLLMSRLALPQPPPDPPAPPLAPPSSAWGGIRAAHAILGGLHLTLDWAVRGLLLLKTRL
- percentage of EdU-negative [1, 3]: 26.7 ± 0.82%
- percentage of EdU-negative [1, 4]: 25.4 ± 0.86%
- percentage of EdU-negative [2, 3]: 4.51 ± 0.15%
- percentage of EdU-negative [2, 4]: 6.32 ± 0.64%

Sequence: MNGFASLLRRNQFILLVLFLLQIQSLGLDIDSRPTAEVCATHTISPGPKGDDGEKGDPGEEGKHGKVGRMGPKGIKGELGDMGDQGNIGKTGPIGKKGDKGEKGLLGIPGEKGKAGTVCDCGRYRKFVGQLDISIARLKTSMKFVKNVIAGIRETEEKFYYIVQEEKNYRESLTHCRIRGGMLAMPKDEAANTLIADYVAKSGFFRVFIGVNDLEREGQYMFTDNTPLQNYSNWNEGEPSDPYGHEDCVEMLSSGRWNDTECHLTMYFVCEFIKKKK [Q9Y6Z7]
- percentage of EdU-negative [1, 5]: 24.36 ± 0.1%
- percentage of EdU-negative ([1]; protein concentration 0.225 µM): 29.1 ± 0.55%
- percentage of EdU-negative [2, 5]: 5.319 ± 0.012%
- percentage of EdU-negative ([2]; protein concentration 0.225 µM): 7.17 ± 1.1%

Sequence: MNLAISIALLLTVLQVSRGQKVTSLTACLVDQSLRLDCRHENTSSSPIQYEFSLTRETKKHVLFGTVGVPEHTYRSRTNFTSKYNMKVLYLSAFTSKDEGTYTCALHHSGHSPPISSQNVTVLRDKLVKCEGISLLAQNTSWLLLLLLSLSLLQATDFMSL
- percentage of EdU-negative [1, 5]: 27.7 ± 0.2%
- percentage of EdU-negative ([1]; protein concentration 0.225 µM): 26.6 ± 1.3%
- percentage of EdU-negative [2, 5]: 4.527 ± 0.039%
- percentage of EdU-negative ([2]; protein concentration 0.225 µM): 6.24 ± 0.86%

Sequence: MNLWLLACLVAGFLGAWAPAVHTQGVFEDCCLAYHYPIGWAVLRRAWTYRIQEVSGSCNLPAAIFYLPKRHRKVCGNPKSREVQRAMKLLDARNKVFAKLHHNTQTFQAGPHAVKKLSSGNSKLSSSKFSNPISSSKRNVSLLISANSGL
- percentage of EdU-negative [1, 6]: 24.3 ± 1.7%
- percentage of EdU-negative [1, 7]: 25.01 ± 0.22%
- percentage of EdU-negative [2, 6]: 4.38 ± 0.21%
- percentage of EdU-negative [2, 7]: 5.5688 ± 0.0047%

Sequence: MNNLLCCALVFLDISIKWTTQETFPPKYLHYDEETSHQLLCDKCPPGTYLKQHCTAKWKTVCAPCPDHYYTDSWHTSDECLYCSPVCKELQYVKQECNRTHNRVCECKEGRYLEIEFCLKHRSCPPGFGVVQAGTPERNTVCKRCPDGFFSNETSSKAPCRKHTNCSVFGLLLTQKGNATHDNICSGNSESTQKCGIDVTLCEEAFFRFAVPTKFTPNWLSVLVDNLPGTKVNAESVERIKRQHSSQEQTFQLLKLWKHQNKDQDIVKKIIQDIDLCENSVQRHIGHANLTFEQLRSLMESLPGKKVGAEDIEKTIKACKPSDQILKLLSLWRIKNGDQDTLKGLMHALKHSKTYHFPKTVTQSLKKTIRFLHSFTMYKLYQKLFLEMIGNQVQSVKISCL
- percentage of EdU-negative ([1]; protein concentration 0.034 µM): 22.2 ± 1.3%
- percentage of EdU-negative ([1]; protein concentration 0.34 µM): 29.5 ± 1%
- percentage of EdU-negative ([2]; protein concentration 0.034 µM): 4.98 ± 0.78%
- percentage of EdU-negative ([2]; protein concentration 0.34 µM): 8.17 ± 0.14%

Sequence: MNPTLGLAIFLAVLLTVKGLLKPSFSPRNYKALSEVQGWKQRMAAKELARQNMDLGFKLLKKLAFYNPGRNIFLSPLSISTAFSMLCLGAQDSTLDEIKQGFNFRKMPEKDLHEGFHYIIHELTQKTQDLKLSIGNTLFIDQRLQPQRKFLEDAKNFYSAETILTNFQNLEMAQKQINDFISQKTHGKINNLIENIDPGTVMLLANYIFFRARWKHEFDPNVTKEEDFFLEKNSSVKVPMMFRSGIYQVGYDDKLSCTILEIPYQKNITAIFILPDEGKLKHLEKGLQVDTFSRWKTLLSRRVVDVSVPRLHMTGTFDLKKTLSYIGVSKIFEEHGDLTKIAPHRSLKVGEAVHKAELKMDERGTEGAAGTGAQTLPMETPLVVKIDKPYLLLIYSEKIPSVLFLGKIVNPIGK [Q8IW75]
- percentage of EdU-negative [1, 8]: 26.6 ± 0.27%
- percentage of EdU-negative [1, 9]: 29.1 ± 1.5%
- percentage of EdU-negative [2, 8]: 6.15 ± 0.62%
- percentage of EdU-negative [2, 9]: 15.6 ± 0.67%
